Columns and labels:
[1] = biological target: Cdh23-EC1+2 (mouse cadherin-23 extracellular repeats EC1 and EC2), wild type (mouse) (UniProt Q99PF4); assay: SEC
[2] = biological target: Cdh23-EC1+2 (mouse cadherin-23 extracellular repeats EC1 and EC2), wild type (mouse) (UniProt Q99PF4); assay: AUC
[3] = biological target: Cdh23-EC1+2 (mouse cadherin-23 extracellular repeats EC1 and EC2), wild type (mouse) (UniProt Q99PF4); assay: single-molecule force spectroscopy
[4] = biological target: Cdh23-EC1+2 (mouse cadherin-23 extracellular repeats EC1 and EC2), wild type (mouse) (UniProt Q99PF4); assay: dynamic light scattering
[5] = biological target: Cdh23-EC1+2 (mouse cadherin-23 extracellular repeats EC1 and EC2), wild type (mouse) (UniProt Q99PF4); assay: FRET or BRET
[6] = biological target: Cdh23-EC1+2 V3C, labelled with cy3 or cy5 at the N-terminus (mouse); assay: FRET or BRET
AUC = biological target: the molecule itself; assay: AUC

## Cdh23-EC1+2 (mouse cadherin-23 extracellular repeats EC1 and EC2), wild type (from UniProt Q99PF4 24-228) (domain or fragment)
[1]
  stoichiometry N: 2
[2]
  Kd: 18 µM
  stoichiometry N: 2
[3]
  percent unbinding events: 8 to 10%
  probability of events: 6%
  τ0 (intrinsic lifetime at zero force), high-force distribution: 1220 s
  τ0 (intrinsic lifetime at zero force), low-force distribution: 1.86 s
[4]
  stoichiometry N: 2

## Cdh23-EC1+2 V3C, labelled with cy3 or cy5 at the N-terminus (domain or fragment)
[5]
  FRET efficiency: 0.64
[6]
  FRET efficiency: 0.15

B1: Cdh23-EC1 (mouse cadherin-23 extracellular repeat EC1) (domain or fragment, UniProt Q99PF4 24-124, looked up)
chain: QVNRLPFFTNHFFDTYLLISEDTPVGSSVTQLLARDMDNDPLVFGVSGEEASRFFAVEPDTGVVWLRQPLDRETKSEFTVEFSVSDHQGVITRKVNIQVGD
modifications: C-terminus covalently joined by sortase A to GGGGC on PEG-coated coverslips and AFM cantilevers in force spectroscopy
AUC
  stoichiometry N: 2
